tested on: Escherichia coli TOP10; assay: shrunken log2 fold change of peptide-encoding DNA abundance (4.5 h post-induction vs induction); higher = less antimicrobial activity (less host growth inhibition); conditions: time post-induction: 4.5 h; library: site-saturation at positions 5, 18, 19, 20
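Also: peptides expressed intracellularly from a pBAD plasmid library in pooled LB shake-flask culture, induced with 0.3% L-arabinose, DNA abundance read by NGS, three biological replicates, DESeq2 with apeglm shrinkage.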

| Sequence | shrunken log2 fold change |
| --- | --- |
| RRIRQRPPRLPRPRPRPTYPPRP | 0.0397 |
| RRIRYRPPRLPRPRPRPAQRPRP | -0.0772 |
| RRIRRRPPRLPRPRPRPWCQPRP | -0.26 |
| RRIRDRPPRLPRPRPRPYRSPRP | -0.142 |
| RRIRQRPPRLPRPRPRPWTTPRP | -0.0827 |
| RRIRKRPPRLPRPRPRPYTTPRP | -0.0326 |
| RRIRNRPPRLPRPRPRPFWDPRP | -0.0775 |
| RRIRIRPPRLPRPRPRPIELPRP | 0.0658 |
| RRIRNRPPRLPRPRPRPYCDPRP | -0.0156 |
| RRIRKRPPRLPRPRPRPCPPPRP | 0.0811 |
| RRIRERPPRLPRPRPRPNWAPRP | 0.0312 |
| RRIRCRPPRLPRPRPRPRMRPRP | 0.542 |
| RRIRARPPRLPRPRPRPSIWPRP | 0.352 |
| RRIRERPPRLPRPRPRPLRYPRP | -0.0652 |
| RRIRARPPRLPRPRPRPVLWPRP | 2.26 |
| RRIRRRPPRLPRPRPRPIQYPRP | -0.00028 |
| RRIRRRPPRLPRPRPRPMIGPRP | -0.041 |
| RRIRERPPRLPRPRPRPATKPRP | 0.156 |
| RRIRVRPPRLPRPRPRPNHSPRP | -0.632 |
| RRIRPRPPRLPRPRPRPKWYPRP | -0.161 |
| RRIRCRPPRLPRPRPRPNVYPRP | -0.53 |
| RRIRCRPPRLPRPRPRPMTMPRP | -0.27 |
| RRIRRRPPRLPRPRPRPTLNPRP | 0.511 |
| RRIRERPPRLPRPRPRPTYRPRP | -0.0372 |
| RRIRWRPPRLPRPRPRPPSAPRP | 0.744 |

| Sequence | shrunken log2 fold change |
| --- | --- |
| RRIRLRPPRLPRPRPRPHPVPRP | 0.0604 |
| RRIRKRPPRLPRPRPRPVFDPRP | 0.171 |
| RRIRHRPPRLPRPRPRPLCSPRP | -0.285 |
| RRIRSRPPRLPRPRPRPRHEPRP | -0.0516 |
| RRIRLRPPRLPRPRPRPGNAPRP | 0.0676 |
| RRIRCRPPRLPRPRPRPEWEPRP | -0.00663 |
| RRIRPRPPRLPRPRPRPVDPPRP | 0.0557 |
| RRIRFRPPRLPRPRPRPCKRPRP | 0.0187 |
| RRIRIRPPRLPRPRPRPGQDPRP | -0.165 |
| RRIRGRPPRLPRPRPRPNISPRP | 0.231 |
| RRIRNRPPRLPRPRPRPHAVPRP | 0.00516 |
| RRIRCRPPRLPRPRPRPEDFPRP | -0.198 |
| RRIRWRPPRLPRPRPRPICNPRP | -0.0133 |
| RRIRMRPPRLPRPRPRPHCPPRP | -0.506 |
| RRIRTRPPRLPRPRPRPPKEPRP | -0.000639 |
| RRIRLRPPRLPRPRPRPKGNPRP | -0.0951 |
| RRIRTRPPRLPRPRPRPHGWPRP | -0.0327 |
| RRIRNRPPRLPRPRPRPWVCPRP | 0.037 |
| RRIRARPPRLPRPRPRPVLIPRP | -0.179 |
| RRIRVRPPRLPRPRPRPIIQPRP | -0.28 |
| RRIRRRPPRLPRPRPRPFQRPRP | 0.608 |
| RRIRQRPPRLPRPRPRPNDIPRP | -0.348 |
| RRIRARPPRLPRPRPRPPTNPRP | 0.678 |
| RRIRERPPRLPRPRPRPFRCPRP | 0.00668 |
| RRIRQRPPRLPRPRPRPCHAPRP | -0.126 |

| Sequence | shrunken log2 fold change |
| --- | --- |
| RRIRSRPPRLPRPRPRPAQCPRP | 0.0899 |
| RRIRTRPPRLPRPRPRPHDVPRP | 0.00489 |
| RRIRRRPPRLPRPRPRPHSHPRP | -0.0882 |
| RRIRTRPPRLPRPRPRPEWTPRP | 0.188 |
| RRIRSRPPRLPRPRPRPKQDPRP | 0.0172 |
| RRIRGRPPRLPRPRPRPFCCPRP | 0.522 |
| RRIRGRPPRLPRPRPRPFYDPRP | 0.0844 |
| RRIRARPPRLPRPRPRPAHIPRP | 0.241 |
| RRIRPRPPRLPRPRPRPAMRPRP | 0.973 |
| RRIRFRPPRLPRPRPRPFVKPRP | -0.457 |
| RRIRDRPPRLPRPRPRPNWPPRP | 0.0913 |
| RRIRERPPRLPRPRPRPMYKPRP | -0.0299 |
| RRIRMRPPRLPRPRPRPQKRPRP | 0.489 |
| RRIRERPPRLPRPRPRPFAMPRP | -0.207 |
| RRIRRRPPRLPRPRPRPQQVPRP | -0.0275 |
| RRIRQRPPRLPRPRPRPAERPRP | 0.179 |
| RRIRARPPRLPRPRPRPFGLPRP | 2.49 |
| RRIRLRPPRLPRPRPRPMESPRP | -0.0323 |
| RRIRLRPPRLPRPRPRPPYKPRP | -0.292 |
| RRIRCRPPRLPRPRPRPTHGPRP | 0.000601 |
| RRIRYRPPRLPRPRPRPGDMPRP | -0.464 |
| RRIRFRPPRLPRPRPRPDCHPRP | -0.0405 |
| RRIRLRPPRLPRPRPRPRMPPRP | 0.352 |
| RRIRNRPPRLPRPRPRPGQWPRP | 0.244 |
| RRIRMRPPRLPRPRPRPHYLPRP | 0.106 |
